Test results published in PMC6131064.

Experiments:
[1] = substrate: CCCC(=O)CC(=O)SCCNC(=O)CCNC(=O)[C@H](O)C(C)(C)COP(=O)(O)OP(=O)(O)OC[C@H]1O[C@@H](n2cnc3c(N)ncnc32)[C@H](O)[C@@H]1OP(=O)(O)O; experiment: thiolysis, decrease in A303 of Mg-keto-acyl-CoA complex, Michaelis-Menten fit; format: biochemical, Cupriavidus necator; conditions: C6 thiolysis, 200 μM CoASH, 10 mM MgCl2, 100 mM Tris pH 7.0
[2] = substrate: CC(=O)CC(=O)SCCNC(=O)CCNC(=O)[C@H](O)C(C)(C)COP(=O)(O)OP(=O)(O)OC[C@H]1O[C@@H](n2cnc3c(N)ncnc32)[C@H](O)[C@@H]1OP(=O)(O)O; experiment: as above; format: biochemical, Cupriavidus necator; conditions: C4 thiolysis, 200 μM CoASH, 10 mM MgCl2, 100 mM Tris pH 7.0

B1: BktB (Cupriavidus necator H16; M158A) (protein)
chain: MTREVVVVSGVRTAIGTFGGSLKDVAPAELGALVVREALARAQVSGDDVGHVVFGNVIQTEPRDMYLGRVAAVNGGVTINAPALTVNRLCGSGLQAIVSAAQTILLGDTDVAIGGGAESMSRAPYLAPAARWGARMGDAGLVDMMLGALHDPFHRIHAGVTAENVAKEYDISRAQQDEAALESHRRASAAIKAGYFKDQIVPVVSKGRKGDVTFDTDEHVRHDATIDDMTKLRPVFVKENGTVTAGNASGLNDAAAAVVMMERAEAERRGLKPLARLVSYGHAGVDPKAMGIGPVPATKIALERAGLQVSDLDVIEANEAFAAQACAVTKALGLDPAKVNPNGSGISLGHPIGATGALITVKALHELNRVQGRYALVTMCIGGGQGIAAIFERI
Km [1]: 17 µM | kcat [1]: 16.7 s⁻¹ | kcat/Km [1]: 982000 M⁻¹ s⁻¹ | Km [2]: 14.1 µM | kcat [2]: 4.63 s⁻¹ | kcat/Km [2]: 328000 M⁻¹ s⁻¹

B2: BktB (Cupriavidus necator H16) (protein)
chain: MTREVVVVSGVRTAIGTFGGSLKDVAPAELGALVVREALARAQVSGDDVGHVVFGNVIQTEPRDMYLGRVAAVNGGVTINAPALTVNRLCGSGLQAIVSAAQTILLGDTDVAIGGGAESMSRAPYLAPAARWGARMGDAGLVDMMLGALHDPFHRIHMGVTAENVAKEYDISRAQQDEAALESHRRASAAIKAGYFKDQIVPVVSKGRKGDVTFDTDEHVRHDATIDDMTKLRPVFVKENGTVTAGNASGLNDAAAAVVMMERAEAERRGLKPLARLVSYGHAGVDPKAMGIGPVPATKIALERAGLQVSDLDVIEANEAFAAQACAVTKALGLDPAKVNPNGSGISLGHPIGATGALITVKALHELNRVQGRYALVTMCIGGGQGIAAIFERI
Km [1]: 15.2 µM | kcat [1]: 4.06 s⁻¹ | kcat/Km [1]: 267000 M⁻¹ s⁻¹ | Km [2]: 17.5 µM | kcat [2]: 148 s⁻¹ | kcat/Km [2]: 8.45e+06 M⁻¹ s⁻¹
